{"source": "paper PMC9482650", "about": "“Quantitative fragmentomics allow affinity mapping of interactomes” (Nature Communications, 2022)", "molecules": {"B1": {"name": "SRSF3 (protein, UniProt P84103 1-164, looked up)", "Serine/arginine-rich splicing …": "MHRDSCPLDCKVYVGNLGNNGNKTELERAFGYYGPLRSVWVARNPPGFAFVEFEDPRDAADAVRELDGRTLCGCRVRVELSNGEKRSRNRGPPPSWGRRPRDDYRRRSPPPRRRSPRRRSFSRSRSRSLSRDRRRERSLSRERNHKPSRSFSRSRSRSRSNERK"}, "B2": {"name": "ARHGEF6 (protein, UniProt Q15052 1-776, looked up)", "Rho guanine nucleotide …": "MNPEEQIVTWLISLGVLESPKKTICDPEEFLKSSLKNGVVLCKLINRLMPGSVEKFCLDPQTEADCINNINDFLKGCATLQVEIFDPDDLYSGVNFSKVLSTLLAVNKATEDQLSERPCGRSSSLSAANTSQTNPQGAVSSTVSGLQRQSKTVEMTENGSHQLIVKARFNFKQTNEDELSVCKGDIIYVTRVEEGGWWEGTLNGRTGWFPSNYVREIKSSERPLSPKAVKGFETAPLTKNYYTVVLQNILDTEKEYAKELQSLLVTYLRPLQSNNNLSTVEVTSLLGNFEEVCTFQQTLCQALEECSKFPENQHKVGGCLLSLMPHFKSMYLAYCANHPSAVNVLTQHSDELEQFMENQGASSPGILILTTNLSKPFMRLEKYVTLLQELERHMEDTHPDHQDILKAIVAFKTLMGQCQDLRKRKQLELQILSEPIQAWEGEDIKNLGNVIFMSQVMVQYGACEEKEERYLMLFSNVLIMLSASPRMSGFIYQGKIPIAGTVVTRLDEIEGNDCTFEITGNTVERIVVHCNNNQDFQEWLEQLNRLIRGPASCSSLSKTSSSSCSAHSSFSSTGQPRGPLEPPQIIKPWSLSCLRPAPPLRPSAALGYKERMSYILKESSKSPKTMKKFLHKRKTERKPSEEEYVIRKSTAALEEDAQILKVIEAYCTSANFQQGHGSSTRKDSIPQVLLPEEEKLIIEETRSNGQTIMEEKSLVDTVYALKDEVRELKQENKRMKQCLEEELKSRRDLEKLVRRLLKQTDECIRGESSSKTSILP"}}, "test_in_all_cases": "PDZ-AP-MS, biotinylated MBP-PDZ baits", "type_in_all_cases": "binding, human", "key": {"HaCat cell extract preys": {"tested_on": "HaCat cell extract preys", "outline": "(§1)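 Biotinylated His6-AviTag-MBP-PDZ baits, or MBP alone, saturated streptavidin resin and were then biotin-blocked. Each was incubated with 1 mg cell lysate for 2 h at 4 °C, washed, and eluted in 8 M urea. Eluates were digested with Lys-C/trypsin, run by nanoLC-MS/MS on an Orbitrap Elite (top20 CID) and searched against human SwissProt.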"}, "HeLa cell extract preys": {"tested_on": "HeLa cell extract preys", "conditions": "PDZ-AP-MS fold change of the PBM-protein prey", "outline": "as §1"}, "[1]": {"tested_on": "Jurkat cell extract preys", "conditions": "for Difference log2: enrichment of prey", "outline": "as §1"}, "[2]": {"conditions": "PDZ-AP-MS fold change of the PBM-protein prey, bait MBP-PDZ DLG1_1"}, "[3]": {"conditions": "PDZ-AP-MS fold change of the PBM-protein prey, bait MBP-PDZ DLG1_2"}, "[4]": {"conditions": "PDZ-AP-MS fold change of the PBM-protein prey, bait MBP-PDZ SCRIB_1"}, "[5]": {"conditions": "PDZ-AP-MS fold change of the PBM-protein prey, bait MBP-PDZ SCRIB_2"}, "[6]": {"conditions": "PDZ-AP-MS fold change of the PBM-protein prey, bait MBP-PDZ SNX27"}, "[7]": {"conditions": "PDZ-AP-MS fold change of the PBM-protein prey, bait MBP-PDZ TX1BP3"}, "[8]": {"conditions": "bait SCRIB_1 PDZ, fold change of prey"}}, "data": [{"molecule": "B1", "values": [{"measurement": "Fold changes, HaCat, DLG1_1", "setting": "HaCat cell extract preys; [2]", "value": 0.6471}, {"measurement": "Fold changes, HaCat, DLG1_2", "setting": "HaCat cell extract preys; [3]", "value": 0.7027}, {"measurement": "Fold changes, HaCat, SCRIB_1", "setting": "HaCat cell extract preys; [4]", "value": 0.4366}, {"measurement": "Fold changes, HaCat, SCRIB_2", "setting": "HaCat cell extract preys; [5]", "value": 0.378}, {"measurement": "Fold changes, HaCat, SNX27", "setting": "HaCat cell extract preys; [6]", "value": 0.5499}, {"measurement": "Fold changes, HaCat, TX1BP3", "setting": "HaCat cell extract preys; [7]", "value": 0.6457}, {"measurement": "Fold changes, HeLa, DLG1_1", "setting": "HeLa cell extract preys; bait MBP-PDZ DLG1_1", "value": 8.89}, {"measurement": "Fold changes, HeLa, DLG1_2", "setting": "HeLa cell extract preys; bait MBP-PDZ DLG1_2", "value": 0.7503}, {"measurement": "Fold changes, HeLa, SCRIB_1", "setting": "HeLa cell extract preys; bait MBP-PDZ SCRIB_1", "value": 8.2529}, {"measurement": "Fold changes, HeLa, SCRIB_2", "setting": "HeLa cell extract preys; bait MBP-PDZ SCRIB_2", "value": 6.813}, {"measurement": "Fold changes, HeLa, SNX27", "setting": "HeLa cell extract preys; bait MBP-PDZ SNX27", "value": 0.891}, {"measurement": "Fold changes, HeLa, TX1BP3", "setting": "HeLa cell extract preys; bait MBP-PDZ TX1BP3", "value": 0.5408}, {"measurement": "Fold changes, Jurkat, DLG1_1", "setting": "[1]; [2]", "value": 0.942}, {"measurement": "Fold changes, Jurkat, DLG1_2", "setting": "[1]; [3]", "value": 1.581}, {"measurement": "Fold changes, Jurkat, SCRIB_1", "setting": "[1]; [4]", "value": 0.6991}, {"measurement": "Fold changes, Jurkat, SCRIB_2", "setting": "[1]; [5]", "value": 0.9858}, {"measurement": "Fold changes, Jurkat, SNX27", "setting": "[1]; [6]", "value": 1.323}, {"measurement": "Fold changes, Jurkat, TX1BP3", "setting": "[1]; [7]", "value": 0.7942}]}, {"molecule": "B2", "values": [{"measurement": "Difference log2", "setting": "HaCat cell extract preys; bait SCRIB_1 PDZ vs MBP, enrichment of prey", "value": 5.7166}, {"measurement": "Ratio SCRIB_1/MBP", "setting": "HaCat cell extract preys; [8]", "value": 52.5856}, {"measurement": "Difference log2", "setting": "[1]; bait SCRIB_1 PDZ vs MBP", "value": 4.28}, {"measurement": "Ratio SCRIB_1/MBP", "setting": "[1]; [8]", "value": 19.4266}, {"measurement": "Difference log2", "setting": "[1]; bait TX1BP3 PDZ vs MBP", "value": 7.045}, {"measurement": "Ratio TX1BP3 / MBP", "setting": "[1]; bait TX1BP3 PDZ, fold change of prey", "value": 132.089}]}]}
